# Assay results from paper PMC11026464, “Local environment in biomolecular condensates modulates enzymatic activity across length scales” (Nature Communications, 2024).
# B1: NADH oxidase from Thermus thermophilus (NOX) (enzyme)
# chain: MEATLPVLDAKTAALKRRSIRRYRKDPVPEGLLREILEAALRAPSAWNLQPWRIVVVRDPATKRALREAAFGQAHVEEAPVVLVLYADLEDALAHLDEVIHPGVQGERREAQKQAIQRAFAAMGQEARKAWASGQSYILLGYLLLLLEAYGLGSVPMLGFDPERVRAILGLPSHAAIPALVALGYPAEEGYPSHRLPLERVVLWR
# notes: NADH oxidase (NOX) from Thermus thermophilus; codon-optimised gene cloned into pET-15b; Purified by heat shock only, so it is not clear whether a His tag is on this protein; The dimer peak in mass photometry is printed as 45 kDa; also called unconjugated NOX; source: E. coli BL21-GOLD (DE3), purified (heat shock method)
# Legend:
# [1] = target: Dbp1-NOX (LCD of Dbp1 from Saccharomyces cerevisiae, residues 1 to 155, fused to the N-terminus of NADH oxidase from Thermus thermophilus) (Saccharomyces cerevisiae | Thermus thermophilus) (UniProt P24784); assay: single-molecule mass photometry; 20 nM protein in low ionic strength buffer (20 mM NaCl), 25 °C, measured over 1 min; Refeyn OneMP
# [2] = system: T1, Dbp1-NOX; assay: NADH absorbance decrease at […] nm, Michaelis-Menten fit; type: biochemical, Thermus thermophilus; conditions: 1 µM enzyme, two-phase micron-sized condensates (apparent, average of dilute and dense phase); 100 µM FAD, O2; 25 mM Tris, 20 mM NaCl, pH 7.5; NADH 50-200 µM
# T1 construct: single fusion chain: Dbp1 LCD (1-155) at N-terminus of NOX; E. coli, heat shock and IMAC; dimer 79 kDa; forms condensates/nanoclusters at low salt; with ATP-dependent RNA helicase DBP1 (Saccharomyces cerevisiae)
# [3] = substrate: NC(=O)C1=CN([C@@H]2O[C@H](COP(=O)(O)OP(=O)(O)OC[C@H]3O[C@@H](n4cnc5c(N)ncnc54)[C@H](O)[C@@H]3O)[C@@H](O)[C@H]2O)C=CC1; assay: purified protein; type: biochemical, Thermus thermophilus; conditions: 1 µM enzyme, homogeneous, 100 µM FAD, O2, 25 mM Tris, 20 mM NaCl, pH 7.5, NADH 50-200 µM
# [4] = target: the molecule itself; assay: single-molecule mass photometry; 20 nM protein in low ionic strength buffer (20 mM NaCl), 25 °C, measured over 1 min; Refeyn OneMP
molecule,measurement,setting,value
"Dbp1-NOX (LCD of Dbp1 from Saccharomyces cerevisiae, residues 1 to 155, fused to the N-terminus of NADH oxidase from Thermus thermophilus) (from UniProt P24784 1-155) (enzyme)",stoichiometry N,[1],2
NC(=O)C1=CN([C@@H]2O[C@H](COP(=O)(O)OP(=O)(O)OC[C@H]3O[C@@H](n4cnc5c(N)ncnc54)[C@H](O)[C@@H]3O)[C@@H](O)[C@H]2O)C=CC1 [NADH],Km,[2],89 ± 34 µM
B1,Km,[3],81 ± 36 µM
same,kcat,[3],1.12 ± 0.21 s⁻¹
same,stoichiometry N,[4],2
